According to the supplement of paper PMC9732359:
± gives the uncertainty stated by the source.

Experiment: protein stability index of a GFP-peptide fusion (yeast GPS) (PSI 1-4); higher = more stable; sorted into four equal gates, so the index is relative within each strain
Summary of the method: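 Tiled 17-residue peptides from yeast proteins were fused downstream of GFP on a plasmid that also expresses Cherry, and the pooled library was carried in yeast. Mid-log cultures grown in leucine-free medium were sorted into four equal gates by GFP/Cherry fluorescence ratio. Plasmids from each gate were PCR-amplified and Illumina-sequenced, and reads were assigned to strains by barcodes. Each peptide's protein stability index is the sum, over gates, of the gate's read frequency multiplied by its gate number.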

Sequence | protein stability index (doa10∆) | protein stability index (pdr5∆) | protein stability index (san1∆) | protein stability index (ubr1∆)
DNMSEEQWLRQFEVSDD [SNF2] | 3.46 ± 0.099 | 3.22 ± 0.094 | 3.16 ± 0.12 | 3.36 ± 0.079
EDLKNFIFQIIEITNSN [SRB8] | 1.96 ± 0.075 | 2.1 ± 0.056 | 2.23 ± 0.086 | 1.79 ± 0.05
KTAPIQESFVPNSERSG [YOR098C/NUP1] | 2.27 ± 0.24 | 2.42 ± 0.11 | 1.4 ± 0.26 | 3.03 ± 0.081
QHIYPSSTPGVANYSAM [GAL11] | 2.85 ± 0.11 | 2.7 ± 0.12 | 3.01 ± 0.11 | 2.81 ± 0.14
PGRLDRKIEFPSLRDRR [RPT3] | 3.35 ± 0.044 | 3.31 ± 0.061 | 3.23 ± 0.048 | 3.23 ± 0.039
NVTLVNGKRRMNPGPSV [RPS30A] | 2.37 ± 0.059 | 2.79 ± 0.035 | 2.67 ± 0.055 | 2.65 ± 0.039
LKGRVVEVCLADLQGSE [RPS1A] | 2.65 ± 0.062 | 3.08 ± 0.071 | 2.51 ± 0.076 | 2.49 ± 0.055
VHKERHDGGFDLVHIKD [RPS4A] | 1.48 ± 0.084 | 1.94 ± 0.069 | 1.61 ± 0.15 | 1.84 ± 0.05
EEEQDTGESEESSSEDD [IRR1] | 3.23 ± 0.2 | 3.44 ± 0.23 | 3.35 ± 0.11 | 3.43 ± 0.06
SKIIVFPRDGKAPEAEQ [RPL13B] | 3.15 ± 0.085 | 3.2 ± 0.08 | 3.18 ± 0.058 | 3.33 ± 0.052
IIESHLIQLQNIFKAEM [CSN9] | 2.75 ± 0.1 | 3.14 ± 0.11 | 2.85 ± 0.088 | 2.74 ± 0.073
FPPNLEKGENPSCVYNL [UBP6] | 2.79 ± 0.1 | 1.7 ± 0.088 | 1.15 ± 0.16 | 1.11 ± 0.064
MKTKTINAQGEEIVVVA [PRP8] | 1.72 ± 0.089 | 1.92 ± 0.12 | 1.36 ± 0.19 | 1.52 ± 0.06
NYNHLLPTRYTLDVEAF [RPL27A] | 1.45 ± 0.045 | 1.61 ± 0.047 | 1.57 ± 0.087 | 1.52 ± 0.032
GVARIYASFNDTFVHVT [RPS14B] | 1.64 ± 0.082 | 2 ± 0.085 | 1.92 ± 0.077 | 2.05 ± 0.095
LKETVIPSLANNGNNST [POP6] | 2.41 ± 0.058 | 3.01 ± 0.065 | 2.54 ± 0.068 | 2.56 ± 0.05
PGFDEFQLIDMKDKEIN [CSI1] | 3.34 ± 0.14 | 3 ± 0.11 | 3.41 ± 0.045 | 3.45 ± 0.061
IGESARIIREMFAYAKE [RPT4] | 2.31 ± 0.065 | 2.29 ± 0.064 | 2.04 ± 0.063 | 1.75 ± 0.038
ISAKDMGQGLCNNINKG [BRR2] | 3.13 ± 0.14 | 3.25 ± 0.22 | 3.12 ± 0.12 | 3.26 ± 0.24
IGEGAKLVRDAFALAKE [RPT5] | 3.51 ± 0.12 | 3.38 ± 0.14 | 3.3 ± 0.093 | 3.5 ± 0.11
MTNLTYFLHLSVFNAEL [YCS4] | 1.62 ± 0.061 | 1.48 ± 0.047 | 1.87 ± 0.09 | 1.76 ± 0.073
KYMVKGGLSGEESIKIY [UBP6] | 2.32 ± 0.13 | 2.47 ± 0.1 | 2.36 ± 0.093 | 2.67 ± 0.07
MAFRKSNVYLSLVNSYI [COB] | 2 ± 0.049 | 2.08 ± 0.078 | 1.96 ± 0.079 | 2.36 ± 0.064
EKLNKTDENTPSADGAD [ITC1] | 3.35 ± 0.098 | 3.29 ± 0.061 | 3.01 ± 0.054 | 3.05 ± 0.05
FGAKPEEQKSSDTSKPA [YJL041W/NSP1] | 3.23 ± 0.083 | 2.91 ± 0.084 | 3.32 ± 0.088 | 3.11 ± 0.09
DASPDSLEALIDLCHDF [YCS4] | 2.81 ± 0.055 | 2.9 ± 0.047 | 2.86 ± 0.054 | 2.86 ± 0.041

Sequence | protein stability index (doa10∆) | protein stability index (pdr5∆) | protein stability index (san1∆) | protein stability index (ubr1∆)
ITHAHSLSNPNSTATMQ [PGD1] | 2.8 ± 0.055 | 2.44 ± 0.054 | 2.5 ± 0.063 | 2.86 ± 0.043
SIGSIYQWNLDGLQQLD [RPN1] | 3.26 ± 0.1 | 3.4 ± 0.068 | 1.93 ± 0.1 | 2.96 ± 0.067
ELTKNPNSNVELAGGNA [SMC1] | – | 3.01 ± 0.15 | 3.32 ± 0.086 | 3.37 ± 0.12
IYHGNHDVGELFWKVKE [PRE2] | 1.9 ± 0.063 | 1.95 ± 0.066 | 2.02 ± 0.084 | 2.45 ± 0.049
IVLDEVRNKSYPVYTRL [DIS3] | 2.93 ± 0.051 | 2.65 ± 0.056 | 2.99 ± 0.067 | 1.69 ± 0.027
RGFFDILSLATEGCIGL [MCD1] | 2.87 ± 0.1 | 3.03 ± 0.057 | 2.52 ± 0.092 | 2.7 ± 0.063
KVKKPLKYLSVEEVIKL [PRE7] | 2.54 ± 0.084 | 2.63 ± 0.054 | 2.75 ± 0.083 | 2.23 ± 0.067
VALPPGSNYNPYFPGGS [CYT1] | 2.32 ± 0.058 | 2.81 ± 0.064 | 2.65 ± 0.067 | 2.64 ± 0.036
NAISNTQDDFTTSVDVM [SRP54] | 2.79 ± 0.076 | 2.76 ± 0.061 | 3.1 ± 0.064 | 3.2 ± 0.045
LLVVIFKKTLRSRISSP [SRB4] | 1.53 ± 0.085 | 1.66 ± 0.094 | 1.77 ± 0.13 | 1.95 ± 0.11
EIIADWIWDMNVHGSLE [BRR2] | 1.89 ± 0.1 | 2.43 ± 0.095 | 2.88 ± 0.085 | 2.18 ± 0.054
NVGLCITIYDLLTVEEG [RPC25] | 1.45 ± 0.091 | 1.26 ± 0.067 | 1.45 ± 0.16 | 1.57 ± 0.076
ATFLLTDIKDTLTKISM [MCD1] | 3.03 ± 0.13 | 3.14 ± 0.13 | 2.88 ± 0.099 | 3.17 ± 0.08
HVNKRKRVSGTSQHSDS [YOR098C/NUP1] | 1.93 ± 0.077 | 2.31 ± 0.11 | 2.22 ± 0.1 | 1.64 ± 0.076
LGWIHTQTEELKFMAAS [PRP8] | 2.59 ± 0.087 | 2.62 ± 0.077 | 2.64 ± 0.063 | 2.71 ± 0.063
VPTKIARGTIEIVSDVK [RPP0] | 2.26 ± 0.25 | 2.38 ± 0.055 | 2 ± 0.17 | –
GHIPWHILAVKKMMNTL [SSN2] | 2.45 ± 0.065 | 2.85 ± 0.098 | 2.74 ± 0.1 | 1.1 ± 0.16
LHGNAKKAAEEAGVTDV [FAS2] | 3.42 ± 0.12 | 3.18 ± 0.12 | 3.13 ± 0.12 | 3.34 ± 0.15
DFDDFLKLGLVEYLDVN [RET1] | 3.01 ± 0.092 | 3.07 ± 0.1 | 3 ± 0.11 | 3.06 ± 0.1
QMTQIMDIMEDFLRYIN [SNF2] | 1.21 ± 0.032 | 1.33 ± 0.034 | 1.4 ± 0.08 | 1.43 ± 0.027
CDVFWVQKDTAIIRLHP [POP1] | 2.29 ± 0.079 | 2.62 ± 0.097 | 2.5 ± 0.095 | 2.58 ± 0.079
QPAQPRESRIVSTEGNV [RPL21A] | 2.49 ± 0.07 | 2.83 ± 0.074 | 3.04 ± 0.069 | 2.87 ± 0.086
EISPQDSIASVLSPDSN [GAL11] | 1.99 ± 0.064 | 2.34 ± 0.062 | 2.98 ± 0.087 | 2.64 ± 0.055
VLADALNAINNAEKTGK [RPS22A] | 2.92 ± 0.056 | 3.27 ± 0.059 | 2.67 ± 0.06 | 2.97 ± 0.049
LAKYRDAGKIDKHLYHV [RPL19A] | 3.3 ± 0.18 | 3.39 ± 0.15 | 1.27 ± 0.28 | 3.61 ± 0.095
GMIYNKLFVSKEHAPYT [FAS2] | 3.12 ± 0.091 | 2.2 ± 0.092 | 2.24 ± 0.17 | 2.41 ± 0.1
